Data on one substance can be found in patent publication US20250382359A1.

The target in this test is GFRAL (co-expressed with RET on HEK293 stable cells) (UniProt Q6UXV0). Put plainly: cell-based or functional assay.
GFRAL (co-expressed with RET on HEK293 stable cells), sequence (Q6UXV0 19-394 limits assumed): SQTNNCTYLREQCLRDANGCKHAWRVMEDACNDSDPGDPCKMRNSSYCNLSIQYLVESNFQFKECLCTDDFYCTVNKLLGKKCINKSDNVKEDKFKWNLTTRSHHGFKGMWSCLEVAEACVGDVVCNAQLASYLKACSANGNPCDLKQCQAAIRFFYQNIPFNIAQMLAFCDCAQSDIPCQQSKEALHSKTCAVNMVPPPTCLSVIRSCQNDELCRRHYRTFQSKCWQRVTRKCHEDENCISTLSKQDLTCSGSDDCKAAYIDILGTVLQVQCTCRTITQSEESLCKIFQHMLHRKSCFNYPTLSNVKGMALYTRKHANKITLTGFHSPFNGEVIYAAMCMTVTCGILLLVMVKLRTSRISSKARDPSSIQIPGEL

Substance “GDF15 (ligand used in the GFRAL/RET cell assays) (from UniProt Q99988 197-308)” showed a Luciferase assay, GFRAL/RET/SRE reporter HEK293 cells; EC80 of GDF15 of 2 nM and a pERK assay, GFRAL/RET HEK293 cells; EC80 of GDF15 of 850 pM.
